The test system of data set [1] is T1, CCCN(CCC)C(=O)[C@H](O)[C@H](O)C(O)CC(=O)C(=O)O.
T1 construct: hexa-His-tagged protein
As to the kind of experiment: steady-state kinetics (Km), coupled lactate dehydrogenase/NADH assay. The format is biochemical, Escherichia coli.

Data set [2] deals with T2, N-acetylneuraminic acid lyase (Escherichia coli, UniProt P0A6L4, E192N).
T2 construct: gene nanA; hexa-His-tagged protein
T2 sequence (P0A6L4 2-297 E192N): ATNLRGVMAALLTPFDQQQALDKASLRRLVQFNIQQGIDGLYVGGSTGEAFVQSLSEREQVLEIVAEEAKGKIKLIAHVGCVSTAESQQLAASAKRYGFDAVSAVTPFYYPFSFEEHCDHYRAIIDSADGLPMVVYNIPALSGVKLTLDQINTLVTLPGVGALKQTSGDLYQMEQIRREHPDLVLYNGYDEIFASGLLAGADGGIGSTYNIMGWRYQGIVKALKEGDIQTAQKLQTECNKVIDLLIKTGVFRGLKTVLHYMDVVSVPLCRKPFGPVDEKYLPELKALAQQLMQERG
As to the kind of experiment: coupled cleavage assay of purified enzyme; crystal soaking gave only the cleavage product pyruvate. The class given is biochemical.

The target in data set [3] is E192N variant of Escherichia coli N-acetylneuraminic acid lyase (Escherichia coli). As to the kind of experiment: crystal structure; space group P2_(1), four crystallographically independent subunits (tetramer); crystals grown at 4 °C by sitting drop in 100 mM Tris-HCl pH 8.0-8.30, 200 mM NaCl, 18% (wt/vol) PEG 3350; some crystals soaked with 100 mM pyruvate and 70 mM THB.

Data set [4] deals with T3, N-acetylneuraminic acid lyase (Escherichia coli, UniProt P0A6L4, E192Q).
T3 construct: gene nanA; hexa-His-tagged protein
T3 sequence (P0A6L4 2-297 E192Q): T2 sequence (P0A6L4 2-297 E192N)
In words: steady-state kinetics (Km), coupled lactate dehydrogenase/NADH assay. The format is biochemical. Particulars: read-out: Neu5Ac / Km.

With “N-acetylneuraminic acid lyase (Escherichia coli K-12; E192P)”, in data set [1], the Km was 200 ± 20 µM; the kcat (usually the number of substrate molecules converted per active site and unit of time at saturation) is 0.817 ± 0.0167 s⁻¹; the kcat/Km – broadly, the turnover number divided by the Michaelis constant – was determined as 4330 M⁻¹ s⁻¹.

Regarding “N-acetylneuraminic acid lyase (Escherichia coli K-12; E192Q)”, in data set [1], the Km came out at 700 ± 50 µM, the kcat was 2.83 ± 0.0667 s⁻¹ and the kcat/Km was 4170 M⁻¹ s⁻¹.

For `CCCN(CCC)C(=O)[C@H](O)[C@H](O)C(O)CC(=O)C(=O)O` (stereo partly drawn) [DPAH, (5R,6R)-7-(dipropylamino)-4,5,6-trihydroxy-2,7-dioxoheptanoic acid], the “coupled cleavage assay of purified enzyme; crystal soaking gave only the cleavag” value in data set [2] is “confirmed that the E192N enzyme had the highest activity for DPAH”.

As for “E192N variant of Escherichia coli N-acetylneuraminic acid lyase (enzyme)”, the stoichiometry N (in general, a count of units in the complex or per binding partner) in data set [3] was 4.

Turning to “N-acetylneuraminic acid lyase (Escherichia coli K-12; E192M)”, in data set [1], the Km was found to be 200 ± 30 µM, the kcat turned out to be 1.17 ± 0.05 s⁻¹ and the kcat/Km is 5330 M⁻¹ s⁻¹.

N-Acetylneuraminic acid [Neu5Ac]: the Km in data set [4] came out at 3500 ± 500 µM.

Regarding “N-acetylneuraminic acid lyase (Escherichia coli K-12; E192F)”, in data set [1], the Km is 300 ± 20 µM, the kcat came to 1.47 ± 0.0333 s⁻¹ and the kcat/Km amounted to 5170 M⁻¹ s⁻¹.

Values taken from article PMC3014015, “Structural Insights into Substrate Specificity in Variants of N-Acetylneuraminic Acid Lyase Produced by Directed Evolution” (Journal of Molecular Biology, 2010).
